Reference: patent US12410234B2, “Compositions and methods for retrieving tumor-related antibodies and antigens” (THE TRUSTEES OF THE UNIVERSITY OF PENNSYLVANIA, priority 2018, dated 2025)

How the values were obtained:
[1] = tested on: EC1 domain of CDH17; assay: Flow analysis of VHH1 on CDH17 truncations in HEK293T cells; assay type: binding, human
From the text: (§1) FIGS. 22A-22C are series of images and graphs depicting that the VHH1 binds to the EC1 domain of CDH17. FIG. 22A is a schema showing human CDH17 truncations. […] FIG. 22C is a schematic diagram of CDH17 structure showing VHH1 binds to the N-terminal EC1 domain of CDH17.
(§2) In order to further confirm the antigen of VHH1 is CDH17, several CDH17 internal truncations were constructed. The truncations were transfected into HEK293T cells. […] Additionally, several CDH17 internal truncations were constructed (FIG. 22A) and transfected into HEK293T cells. Flow cytometry analysis was performed with the purified VHH1 nanobody and APC labeled anti-HA secondary antibody against HA on VHH1 nanobody. […] CDH17, a cell adhesion protein highly expressed in human NETs. CDH17 is a cell adhesion protein highly expressed in human NETs. […] One nanobody, named VHH1 was identified that specifically binds to CDH17 protein. […] VHH1 was sequenced and confirmed to contain the conserved VHH sequence (FIG. 14).

[2] = biological target: T1, EC1 domain of CDH17 (Homo sapiens, UniProt Q12864); assay: as above; assay type: binding
T1 construct: expressed in transfected cells; host or cells: HEK293T
T1 sequence (Q12864 23-832): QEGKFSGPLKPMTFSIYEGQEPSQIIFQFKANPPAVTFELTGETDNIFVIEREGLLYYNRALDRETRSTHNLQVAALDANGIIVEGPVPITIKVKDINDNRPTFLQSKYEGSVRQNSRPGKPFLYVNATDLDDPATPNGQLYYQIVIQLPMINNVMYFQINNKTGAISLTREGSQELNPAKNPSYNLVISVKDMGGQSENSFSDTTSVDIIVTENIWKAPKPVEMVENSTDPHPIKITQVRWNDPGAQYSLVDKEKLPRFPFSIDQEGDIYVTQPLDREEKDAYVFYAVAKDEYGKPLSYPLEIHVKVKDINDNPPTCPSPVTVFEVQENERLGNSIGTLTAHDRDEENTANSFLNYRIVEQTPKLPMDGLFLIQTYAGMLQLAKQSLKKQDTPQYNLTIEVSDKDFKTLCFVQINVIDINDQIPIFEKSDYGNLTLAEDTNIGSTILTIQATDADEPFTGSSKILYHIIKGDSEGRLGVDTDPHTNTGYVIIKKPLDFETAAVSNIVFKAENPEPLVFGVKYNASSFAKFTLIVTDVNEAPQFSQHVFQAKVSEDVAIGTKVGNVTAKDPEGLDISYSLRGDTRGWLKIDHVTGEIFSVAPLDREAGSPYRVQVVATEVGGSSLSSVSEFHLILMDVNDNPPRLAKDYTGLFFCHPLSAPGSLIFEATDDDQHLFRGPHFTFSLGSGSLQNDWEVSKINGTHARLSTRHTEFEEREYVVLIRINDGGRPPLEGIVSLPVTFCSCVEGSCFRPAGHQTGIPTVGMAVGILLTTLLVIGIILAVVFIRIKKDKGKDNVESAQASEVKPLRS
From the text: as §1, §2

[3] = biological target: T2, mouse CDH17 (Mus musculus, UniProt Q9R100); assay: Flow cytometry of VHH1 phage on HEK293T cells transfected with mouse CDH17; assay type: binding; conditions: transiently transfected HEK293T
T2 construct: expressed in transfected cells; host or cells: HEK293T
T2 sequence (Q9R100 26-827): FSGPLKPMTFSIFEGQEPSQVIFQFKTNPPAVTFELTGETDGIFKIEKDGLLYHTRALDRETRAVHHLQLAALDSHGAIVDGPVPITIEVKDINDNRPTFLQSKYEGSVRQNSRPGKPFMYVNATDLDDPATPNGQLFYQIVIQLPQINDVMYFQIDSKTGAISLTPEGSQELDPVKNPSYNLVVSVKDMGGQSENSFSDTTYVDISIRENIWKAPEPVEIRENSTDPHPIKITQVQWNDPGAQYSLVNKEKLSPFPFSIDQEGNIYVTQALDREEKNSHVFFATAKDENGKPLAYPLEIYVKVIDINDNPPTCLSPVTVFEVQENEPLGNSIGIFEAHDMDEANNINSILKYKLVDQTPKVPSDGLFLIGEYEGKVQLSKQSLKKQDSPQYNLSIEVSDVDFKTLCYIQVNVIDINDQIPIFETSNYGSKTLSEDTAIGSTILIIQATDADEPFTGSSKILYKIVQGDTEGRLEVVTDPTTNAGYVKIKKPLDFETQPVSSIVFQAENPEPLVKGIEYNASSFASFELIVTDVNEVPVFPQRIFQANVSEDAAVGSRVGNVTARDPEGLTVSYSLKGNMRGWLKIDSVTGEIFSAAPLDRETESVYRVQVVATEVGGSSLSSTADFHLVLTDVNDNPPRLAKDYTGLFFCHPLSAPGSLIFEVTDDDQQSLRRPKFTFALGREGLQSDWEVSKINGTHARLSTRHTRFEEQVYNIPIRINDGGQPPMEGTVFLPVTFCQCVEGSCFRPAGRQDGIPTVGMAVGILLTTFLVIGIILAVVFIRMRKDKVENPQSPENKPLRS
From the text: (§3) FIGS. 12A-12D are a series of graphs and images depicting isolation of VHH1 from a llama-derived […] antibody phage display naive library by panning to BON cells, as described in FIG. 1A. VHH1 was isolated from phage library and specifically bound human neuroendocrine tumor (NET) BON cells in vitro, but not other tumor cells such as breast cancer cells or leukemia cells, by positive or negative pannings, as illustrated in FIG. 1. […] FIG. 12B depicts the antigen of VHH1 is CDH17 (through DNA sequencing individual phage clones that specifically bound BON cells), as identified by screening the transfected cells. Flow analysis of VHH1 binding to CDH17 overexpressed in 293 cells is shown.
(§4) Next, to identify the protein antigen of the isolated VHH1 nanobody, ˜3000 human cell membrane protein cDNAs were prepared and transfected into HEK293T cells individually, followed by flow cytometry analysis with the VHH1-expressing phage and FITC-labeled secondary antibody against phage M13 protein (FIG. 12A). […] Human or mouse CDH17 cDNA was transiently transfected into HEK293T cells, followed by flow cytometry analysis with the VHH1-expressing phage and FITC-labeled secondary antibody against phage M13 protein.

[4] = biological target: T3, human full length CDH17 (Homo sapiens, UniProt Q12864); assay: Flow cytometry of VHH1 phage on HEK293T cells transfected with human CDH17; assay type: binding; conditions: screen of ~3000 cell surface proteins
T3 construct: expressed in transfected cells; host or cells: HEK293T
T3 sequence (Q12864 23-832): T1 sequence (Q12864 23-832)
From the text: as §3, §4

[5] = tested on: BT474 cells; assay: Flow cytometry binding of VHH1 to BT474 cells; parameters: species or system human
[6] = tested on: NT-3 cells; assay: Flow analysis of VHH1 binding to NT-3 cells; parameters: species or system human
[7] = tested on: BON cells; assay: Flow cytometry binding of VHH1 to BON cells; parameters: species or system human
[8] = tested on: human pancreatic neuroendocrine tumor (PNET) samples; assay: Flow cytometry binding of VHH1 to human PNET biopsy samples; conditions: four fresh samples via biopsy from liver
[9] = tested on: CDH17-negative QGP1 cells; assay: In vitro killing of QGP1 cells by ADC (MTT assay); assay type: cell-based; conditions: cytotoxicity assay
Protocol: (§5) Scale bar: […]. […] Scale bar: […].

[10] = tested on: BON cells; assay: In vitro killing of BON cells by ADC (MTT assay)
[11] = tested on: QGP1 cells; assay: Flow cytometry binding of VLV or VLV-DM1 to QGP1 cells
Protocol: as §5

[12] = tested on: BON cells; assay: Flow cytometry binding of VLV or VLV-DM1 to BON cells; parameters: species or system human
Protocol: as §5

[13] = tested on: patient-derived AML cells; assay: sCAR T plus Nb switch in patient-derived AML NSG mice; assay type: in vivo; conditions: sCAR T cells plus switch compared to sCAR T cell alone
From the text: (§6) FIGS. 6A-6H are series of images and graphs depicting that Nb switch-activated CAR T cells eradicate AML in vivo in a controllable manner. FIGS. 6A-6B: Schematic diagram of switchable CAR T system. The Nb157 was expressed and purified by fusing with PNE, a fourteen amino acid peptide, either at N terminal or C terminal of the Nanobody. Primary human T cells were engineered by lentivirus transduction of scFv CAR that recognized PNE specifically. FIG. 6C: Test the affinity of Nb157, Nb157-N-PNE or Nb157-C-PNE against THP-1 cells by flow cytometry analysis. FIG. 6D: Killing assay of Nb157-PNE-mediated sCAR system against THP-1 cells in series of switch concentrations. […] The engraftment volumes were monitored by measuring the lengths and widths of the tumors. […] The primary leukemia or CAR T cells in the mouse peripheral blood were monitored by staining with CD33 or CD3 fluorescence labeled antibodies.
It was explored whether the switch CAR system can also suppress primary AML cells in mice. To this end, patient-derived AML cells were injected into the NSG mice to build leukemic mice model as determined by detection of the human CD33+ AML cells in the peripheral blood of the recipient mice (FIG. 6G). […] The appearance of CD33+ AML cells or CD3+ T cells in peripheral blood were monitored by flow cytometry analysis weekly.

[14] = tested on: THP-1 cells; assay: Killing assay of Nb157-PNE-mediated sCAR system; assay type: cell-based, human; conditions: sCAR T to THP-1 2:1, 16 hours
From the text: as §6, with “concentrations. The ratio of sCAR T to THP-1 was 2:1 and assay was performed after 16 hours incubation. FIG. 6E: 10 million THP-1 cells were transplanted into NSG mice subcutaneously to form the 150 mm^3 of tumors.” for “concentrations.”
Killing assays were performed as previously described (Cao, L. F. et al. (2010) Cytometry A 77, 534-545). […] Quantification were calculated by either Countbright beads or volume.

[15] = tested on: THP-1 tumors; assay: sCAR T plus Nb switch in THP-1 xenograft NSG mice; assay type: in vivo; conditions: with sCAR T cells
From the text: as §6, with “concentrations. The ratio of sCAR T to THP-1 was 2:1 and assay was performed after 16 hours incubation. FIG. 6E: 10 million THP-1 cells were transplanted into NSG mice subcutaneously to form the 150 mm^3 of tumors.” for “concentrations.”
To determine whether the inducible switch, in concert with the sCAR T cells, can kill tumor in mice, THP-1 cells were transplanted into NSG mice subcutaneously to form tumors. […] It was determined whether resumption of the Nb157 switch injection suppress the tumor growth again. […]

B1: VHH1: llama nanobody binding the EC1 domain of CDH17, SEQ ID NO: 2 (protein)
VHH: QVQLQESGGGLVQPGGSTRLSCVSSRTFSYYDMGWFRQAPGKEREFVALLSWNGENAEYSDSVMGRFTVSRGNTQNSVNLQMNNLKPEDTGIYYCAVTHGGARSVRSWGQGTQVTVSS
modifications: VHH1 nanobody
Question: For B1, which “binding to EC1 domain deleted truncation Del-1” value [1] is on record?
Answer: Its value is “completely lost the function to interact with VHH1 nanobody”.

Question: What about the “binding domain on CDH17” value [2] of the same molecule?
Answer: Its value is “binds to the EC1 domain at the N-terminal part of CDH17”.

Question: What about the “binding to mouse CDH17” value [3] of the same molecule?
Answer: The value was “bound both human and mouse CDH17”.

Question: And the “binding to human CDH17” value [4]?
Answer: The value was “only bound to human full length CDH17”.

Question: And the “binding to BT474 cells” value [5]?
Answer: The value was “cannot be bound by VHH1”.

Question: And the “binding to NT-3 cells” value [6]?
Answer: The value was “robustly bound by VHH1”.

Question: And the “binding to BON cells” value [7]?
Answer: Its value is “can be bound by VHH1”.

Question: What about the “binding to human PNET samples” value [8] of the same molecule?
Answer: Its value is “robustly bound by VHH1”.

B2: VLV-DM1 (conjugate)
VHH 1: B1 VHH
VHH 2: B1 VHH
modifications: left off: things letters cannot carry; small tags and cut ends
Question: How did the “killing of QGP1 cells” value [9] turn out when B2 was run?
Answer: Its value is “but not CDH17-negative QGP1 cells”.

Question: What about the “lysis of BON cells (morphology)” value ([10]; at 4 nM, microscopic observation) of the same molecule?
Answer: The value was “lysed the BON cells”.

Question: What about the “killing of BON cells” value ([10]; cytotoxicity assay) of the same molecule?
Answer: Its value is “significantly killed BON cells”.

Question: And the “binding to QGP1 cells” value [11]?
Answer: Its value is “but not QGP1 cells”.

Question: And the “binding to BON cells” value [12]?
Answer: The value was “bound to BON cells, albeit with slightly reduced affinity”.

B3: Nb157-C-PNE: Nb157 with C-terminal PNE, a fourteen amino acid peptide; inducible nanobody switch (protein)
chain: AAQAAQVQLQESGGGLVQPGGSLSLSCTASGFTFSSYSMAWVRQAPGKGPEWVSGIYPSDGKTRYADFVKGRFSISRDNAKNMLYLQMNNLEPEDTALYYCARGITGLGPRGQGTQVTVSSAA
modifications: left off: small tags and cut ends
notes: Nb157 with C-terminal PNE, a fourteen amino acid peptide; inducible nanobody switch
Question: B3 was tested. Which “survival (Kaplan Maier)” value [13] did it give?
Answer: Its value is “significantly protected the leukemic mice from dying”.

Question: And the “switch-triggered killing of THP-1 cells by sCAR T cells” value [14]?
Answer: The value was “potently triggered the killing of THP-1 cells by the sCAR T cells”.

Question: What about the “tumor growth, THP-1 xenograft” value ([15]; first five times of switch injection) of the same molecule?
Answer: Its value is “significantly slowed down growth”.

Question: And the tumor size ([15]; switch restarted from day 21, day 52)?
Answer: Its tumor size is “almost undetectable”.
